Experimental data as given in US20260250421A1 (BIOCYTOGEN PHARMACEUTICALS BEIJING, published 2026).

T1: TROP2 on NCI-H1975 and NUGC-4 tumor cells (UniProt P09758 27-323, limits assumed)
T1 construct: whole, on cells; species of the lines is not worded there; also called TROP2 on cells
T1 sequence (looked up): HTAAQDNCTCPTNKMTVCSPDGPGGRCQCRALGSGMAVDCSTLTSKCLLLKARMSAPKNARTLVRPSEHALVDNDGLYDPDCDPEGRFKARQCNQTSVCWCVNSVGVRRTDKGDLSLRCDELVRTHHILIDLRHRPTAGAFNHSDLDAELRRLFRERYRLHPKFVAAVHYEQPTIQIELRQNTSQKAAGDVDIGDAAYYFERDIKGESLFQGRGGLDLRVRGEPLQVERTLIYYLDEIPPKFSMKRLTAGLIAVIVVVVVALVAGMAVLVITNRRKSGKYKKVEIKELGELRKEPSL

T2: His-tagged human TROP2 protein (human, UniProt P09758 27-274)
T2 construct: Bought protein; also called hTROP2-His; ACRO Biosystems Cat# TR2-H5223; not shown: His tag
T2 sequence (looked up): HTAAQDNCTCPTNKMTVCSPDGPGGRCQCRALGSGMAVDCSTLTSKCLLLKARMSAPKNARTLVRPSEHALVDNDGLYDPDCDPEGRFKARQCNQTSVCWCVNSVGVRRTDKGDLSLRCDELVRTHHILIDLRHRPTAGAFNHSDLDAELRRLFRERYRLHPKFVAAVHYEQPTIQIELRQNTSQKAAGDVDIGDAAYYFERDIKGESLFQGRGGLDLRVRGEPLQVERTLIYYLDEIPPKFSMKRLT

T3: His-tagged monkey TROP2 protein (cynomolgus monkey; Rhesus …, UniProt A0A5F8AGB8 27-274)
T3 construct: also called cTROP2-His; ACRO Biosystems Cat# TR2-R52H3
T3 sequence: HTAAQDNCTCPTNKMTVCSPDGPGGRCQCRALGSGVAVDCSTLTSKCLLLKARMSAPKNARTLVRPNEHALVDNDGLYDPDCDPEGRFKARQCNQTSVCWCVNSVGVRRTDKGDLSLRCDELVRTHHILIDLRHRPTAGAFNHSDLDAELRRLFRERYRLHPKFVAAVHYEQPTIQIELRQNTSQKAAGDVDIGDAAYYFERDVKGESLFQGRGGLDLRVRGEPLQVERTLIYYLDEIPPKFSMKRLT


Key:
[1] = biological target: T1, TROP2 on NCI-H1975 and NUGC-4 tumor …; test: flow cytometry on NUGC-4 cells (only TROP2 expression), anti-hIgG-Fc Alexa Fluor 647 secondary antibody, MFI [B]
Method: (§1) This experiment was performed to test the binding activities of the anti-PTK7/TROP2 bispecific antibodies to different tumor cell lines. NCI-H1975 cells or NUGC-4 cells were transferred to a 96-well plate at a density of 5×10⁴ cells/well respectively. The sample antibody was added to the 96-well plate, and incubated at 4° C. for 30 min.

[2] = biological target: T1, TROP2 on NCI-H1975 and NUGC-4 tumor …; test: flow cytometry on NCI-H1975 cells (PTK7/TROP2 co-expression), anti-hIgG-Fc Alexa Fluor 647 secondary antibody, MFI [A]
Method: as §1

[3] = biological target: T2, His-tagged human TROP2 protein; test: SPR Biacore 8K, Ab on Protein A chip
Method: (§2) The affinity of the anti-TROP2 antibodies to His-tagged human TROP2 protein (hTROP2-His, ACRO Biosystems Inc., Cat #: TR2-H5223), His-tagged cynomolgus monkey TROP2 protein (cTROP2-His, ACRO Biosystems Inc., Cat #: TR2-R52H3) and His-tagged dog TROP2 protein (dTROP2-His, ACRO Biosystems Inc., Cat #: TR2-C52H4) were measured by surface plasmon resonance (SPR) using Biacore™ (Biacore, INC, Piscataway N.J.) 8K biosensor equipped with pre-immobilized Protein A sensor chips.
(§3) Purified anti-TROP2 antibodies were diluted to 1 μg/mL and then injected into the Biacore™ 8K biosensor at 10 μL/min for about 50 seconds to achieve a desired protein density (e.g., about 350 response units (RU)). The His-tagged TROP2 protein at a concentration of 200 nM was then injected at 30 μL/min for 180 seconds. Dissociation was monitored for 400 seconds. The chip was regenerated after the last injection of each titration with glycine (pH 2.0, 30 μL/min for 30 seconds).

[4] = biological target: T3, His-tagged monkey TROP2 protein; test: SPR Biacore 8K, Ab on Protein A chip
Method: as §2, §3

Row | Binder | EC50 (read off the curve) [1] | EC50 (read off the curve) [2] | Kd [3] | koff [3] | kon [3] | Kd [4] | koff [4] | kon [4]
1 | DS-1062 analog (antibody, V domains shown, The sheet names it 'DS-1062 analog' with no LALA or SI suffix, so it is kept apart from m18 (DS-1062 analog-LALA); also called antibody portion of DS-1062; copies: 2 + 2) VH: QVQLVQSGAEVKKPGASVKVSCKASGYTFTTAGMQWVRQAPGQGLEWMGWINTHSGVPKYAEDFKGRVTISADTSTSTAYLQLSSLKSEDTAVYYCARSGFGSSYWYFDVWGQGTLVTVSS VL: DIQMTQSPSSLSASVGDRVTITCKASQDVSTAVAWYQQKPGKAPKLLIYSASYRYTGVPSRFSGSGSGTDFTLTISSLQPEDFAVYYCQQHYITPLTFGQGTKLEIK | ~0.3 µg/mL | ~0.4 µg/mL | – | – | – | – | – | –
2 | 18E9 (antibody, V domains shown, also called anti-TROP2 antibody 18E9) VH: QLQLQQSGPGLLKPSETLSLTCTVSGGSISSSYYFWGWIRQPPGKGLEWIGAIYYIGNTHYNPSLKSRVTISIDTSKNQFSLNLNSVTAADTAIYYCARYEDTWNWFDPWGQGTLVTVSS VL: not shown | – | – | 1.46 nM | 0.00117 s⁻¹ | 798000 M⁻¹ s⁻¹ | 1.2 nM | 0.00132 s⁻¹ | 1.1e+06 M⁻¹ s⁻¹
3 | Sacituzumab analog (antibody, V domains shown, also called antibody portion of Sacituzumab govitecan) VH: QVQLQQSGSELKKPGASVKVSCKASGYTFTNYGMNWVKQAPGQGLKWMGWINTYTGEPTYTDDFKGRFAFSLDTSVSTAYLQISSLKADDTAVYFCARGGFGSSYWYFDVWGQGSLVTVSS VL: DIQLTQSPSSLSASVGDRVSITCKASQDVSIAVAWYQQKPGKAPKLLIYSASYRYTGVPDRFSGSGSGTDFTLTISSLQPEDFAVYYCQQHYITPLTFGAGTKVEIKR | ~0.6 µg/mL | ~0.7 µg/mL | 1.24 nM | 0.000255 s⁻¹ | 205000 M⁻¹ s⁻¹ | 1.11 nM | 0.000245 s⁻¹ | 221000 M⁻¹ s⁻¹
4 | DS-1062 analog-LALA (antibody, V domains shown, also called DS-1062 analog with LALA mutations) VH: QVQLVQSGAEVKKPGASVKVSCKASGYTFTTAGMQWVRQAPGQGLEWMGWINTHSGVPKYAEDFKGRVTISADTSTSTAYLQLSSLKSEDTAVYYCARSGFGSSYWYFDVWGQGTLVTVSS VL: DIQMTQSPSSLSASVGDRVTITCKASQDVSTAVAWYQQKPGKAPKLLIYSASYRYTGVPSRFSGSGSGTDFTLTISSLQPEDFAVYYCQQHYITPLTFGQGTKLEIKR | – | – | 37 nM | 0.00411 s⁻¹ | 111000 M⁻¹ s⁻¹ | 32.5 nM | 0.00409 s⁻¹ | 126000 M⁻¹ s⁻¹
5 | 18F12 (antibody, V domains shown, also called anti-TROP2 antibody 18F12) VH: QLQLKESGPGLVKPSETLSLTCTVSGGSISYYYWSWIRQPPGMGLEWIGNIYYSGDTNYNPSLRSRVTISIDMSKNQFSLRLNSVTAADTAVYYCARYDMFKWNYEAFDVWGQGTMVTVSS VL: not shown | – | – | 7.16 nM | 0.00511 s⁻¹ | 713000 M⁻¹ s⁻¹ | 5.41 nM | 0.00435 s⁻¹ | 803000 M⁻¹ s⁻¹
